Test results taken from US11072647B2, “TGF-receptor II isoform, fusion peptide, methods of treatment and methods in vitro” (Onsejo Nacional DE Investigation Cientiticay Tecnica, priority 2013, dated 2021).

System: hASCs cells
Assay: Cytokine Array G5 of supernatants of lentivirally transduced hASCs
Format: cell-based, human
Parameters: key to IL-6* secreted by hASC / IGFBP-4 secreted by hASC / IL-7 secreted by hASC / LIF secreted by hASC / TNF-α secreted by hASC / FLT3-L secreted by hASC / SCF secreted by hASC / LIGHT secreted by hASC / IL-3 secreted by hASC / Oncostatin M secreted by hASC / FGF-7 secreted by hASC / FGF-9 secreted by hASC / Angiogenin secreted by hASC / BDNF secreted by hASC / NT-3 secreted by hASC / EGF secreted by hASC / NT-4 secreted by hASC / PIGF secreted by hASC / TIMP-1 secreted by hASC / GRO secreted by hASC / TIMP-2 secreted by hASC / CXCL1 (GROα) secreted by hASC / INF-γ secreted by hASC / CXCL6 (GCP-2) secreted by hASC / IL-2 secreted by hASC / CXCL9 (MIG) secreted by hASC / CXCL10 (IP-10) secreted by hASC / Osteopontin secreted by hASC / CXCL12 (SDF-1) secreted by hASC / Osteoprotegerin secreted by hASC / CXCL13 (BLC) secreted by hASC / CCL1 (I-309) secreted by hASC / Leptin secreted by hASC / CCL2 (MCP-1) secreted by hASC / CCL4 (MIP1b) secreted by hASC / GDNF secreted by hASC / CCL7 (MCP-3) secreted by hASC / IL-10 secreted by hASC / CCL8 (MCP-2) secreted by hASC / IL-13 secreted by hASC / CCL17 (TARC) secreted by hASC / IL-1α secreted by hASC / CCL18 (PARC) secreted by hASC / IL-1β secreted by hASC / CCL20 (MIP3a) secreted by hASC / CCL24 (Eotaxin-2) secreted by hASC / IL-12 p70 secreted by hASC / CCL26 (Eotaxin-3) secreted by hASC / IL-15 secreted by hASC / G-CSF secreted by hASC / IGF-1 secreted by hASC / M-CSF secreted by hASC / IGFBP-1 secreted by hASC / GM-CSF secreted by hASC / IGFBP-3 secreted by hASC / TNF-β secreted by hASC / Onc M secreted by hASC / VEGF secreted by hASC / CXCL5 (ENA-78) secreted by hASC / MIF secreted by hASC / CCL11 (Eotaxin) secreted by hASC / IL-5 secreted by hASC / TGF-β1 secreted by hASC: ↑: Increase or decrease of cytokines levels are referred to the levels secreted by cells transduced with the control vector Lt.eGFP; ↓: Increase or decrease of cytokines levels are referred to the levels secreted by cells transduced with the control vector Lt.eGFP; UC: unchanged levels with respect to cells transduced with the control vector Lt.eGFP; Abs: absent in mock transducer cells control; Abs: absent in mock transducer cells control
Protocol: Furthermore, the effect of TβRII-SE recombinant isoform was measured on a panel of 80 cytokines secreted by hASCs cells (FIG. 16). Cells were transduced with either control Lt-GFP, the TGF-β1 inhibitor Lt. TβRII-DN, or Lt-TβRII-SE and incubated in the presence or absence of exogenous TGF-β1. Collected supernatants were used to analyze the cytokines in a Cytokine Array G5 (Raybiotech, Inc. Norcross, USA).
Increase or decrease of cytokines levels are referred to the levels secreted by cells transduced with the control vector Lt.eGFP either in the presence (paracrine) or absence (autocrine) of exogenous TGF-β1. UC: unchanged levels with respect to cells transduced with the control vector Lt.eGFP. Abs: absent in mock transducer cells control. Dark grey boxes: decreased to undetected levels or absent in the supernatant of cells transduced with control vector Lt.eGFP.
A cytokine/chemokine array kit G5 (Ray Biotech Inc., Norcross, Ga.) was used to detect a panel of 80 secreted cytokines as recommended by the manufacturer. hASCs P7 untransduced or transduced with lentiviral vectors were grown for 72 h in a medium supplemented with 0.1% BSA. Supernatants were collected, filtered and frozen after collection. For densitometry analysis of the arrays, Typhoon 9410 Variable mode Imager (GE Healthcare Life Sciences) was used, and signal intensity values were measured using the Image analysis software ImageQuant TL 7.0 (GE Healthcare Life Sciences). Microarray data were analyzed with RayBio® Antibody Array Analysis Tool. Good data quality and adequate normalization were ensured using internal control normalization without background. Any ≥1.5-fold increase or ≤0.65-fold decrease in signal intensity for a single analyte between samples or groups may be considered a measurable and significant difference in expression, provided that both sets of signals are well above background (Mean background+3 standard deviations, accuracy≈99%).

[1] = Autocrine TGF-β1 (no exogenous TGF-β1), vs Lt.eGFP control
[2] = Paracrine TGF-β1 (3 pg/μl), vs Lt.eGFP control

B1: TβRII-SE: 80 amino acid soluble endogenous isoform of human TGF-β receptor II lacking the transmembrane domain, SEQ ID No. 2 (protein, listed as Homo sapiens)
chain: MGRGLLRGLWPLHIVLWTRIASTIPPHVQKSVNNDMIVTDNNGAVKFPQLCKFCDVRFSTCDNQKSCFSKVHYEGKKKAW
What does the source list for B1?
OPG secretion (ASC, high TGF-β1 concentration, vs Lt.eGFP-transduced control cells): dramatic drop; Angiogenin secreted by hASC [1]: UC; BDNF secreted by hASC [1]: UC; CCL1 (I-309) secreted by hASC [1]: UC; CCL2 (MCP-1) secreted by hASC [1]: UC; CCL4 (MIP1b) secreted by hASC [1]: UC; CCL7 (MCP-3) secreted by hASC [1]: UC; CCL8 (MCP-2) secreted by hASC [1]: ↑; CCL17 (TARC) secreted by hASC [1]: UC; CCL18 (PARC) secreted by hASC [1]: ↓; CCL20 (MIP3a) secreted by hASC [1]: abs; CCL24 (Eotaxin-2) secreted by hASC [1]: ↓; CCL26 (Eotaxin-3) secreted by hASC [1]: abs; CXCL1 (GROα) secreted by hASC [1]: UC; CXCL6 (GCP-2) secreted by hASC [1]: UC; CXCL9 (MIG) secreted by hASC [1]: UC; CXCL10 (IP-10) secreted by hASC [1]: UC; CXCL12 (SDF-1) secreted by hASC [1]: UC; CXCL13 (BLC) secreted by hASC [1]: abs; EGF secreted by hASC [1]: abs; FGF-7 secreted by hASC [1]: ↓; FGF-9 secreted by hASC [1]: UC; FLT3-L secreted by hASC [1]: ↓; G-CSF secreted by hASC [1]: ↓; GDNF secreted by hASC [1]: UC; GM-CSF secreted by hASC [1]: ↑; GRO secreted by hASC [1]: UC; IGF-1 secreted by hASC [1]: ↓; IGFBP-1 secreted by hASC [1]: UC; IGFBP-3 secreted by hASC [1]: ↓; IGFBP-4 secreted by hASC [1]: abs; IL-1α secreted by hASC [1]: ↓; IL-1β secreted by hASC [1]: abs; IL-2 secreted by hASC [1]: UC; IL-3 secreted by hASC [1]: UC; IL-6* secreted by hASC [1]: UC; IL-7 secreted by hASC [1]: ↓; IL-10 secreted by hASC [1]: UC; IL-12 p70 secreted by hASC [1]: UC; IL-13 secreted by hASC [1]: ↓; IL-15 secreted by hASC [1]: abs; INF-γ secreted by hASC [1]: ↓; LIF secreted by hASC [1]: UC; LIGHT secreted by hASC [1]: abs; Leptin secreted by hASC [1]: ↓; M-CSF secreted by hASC [1]: UC; NT-3 secreted by hASC [1]: UC; NT-4 secreted by hASC [1]: UC; Oncostatin M secreted by hASC [1]: ↓; Osteopontin secreted by hASC [1]: abs; Osteoprotegerin secreted by hASC [1]: UC; PIGF secreted by hASC [1]: ↓; SCF secreted by hASC [1]: abs; TIMP-1 secreted by hASC [1]: UC; TIMP-2 secreted by hASC [1]: UC; TNF-α secreted by hASC [1]: ↓; Angiogenin secreted by hASC [2]: UC; BDNF secreted by hASC [2]: Abs; CCL1 (I-309) secreted by hASC [2]: abs; CCL2 (MCP-1) secreted by hASC [2]: UC; CCL4 (MIP1b) secreted by hASC [2]: abs; CCL8 (MCP-2) secreted by hASC [2]: UC; CCL11 (Eotaxin) secreted by hASC [2]: UC; CCL17 (TARC) secreted by hASC [2]: UC; CCL20 (MIP3a) secreted by hASC [2]: UC; CCL24 (Eotaxin-2) secreted by hASC [2]: abs; CCL26 (Eotaxin-3) secreted by hASC [2]: abs; CXCL1 (GROα) secreted by hASC [2]: abs; CXCL5 (ENA-78) secreted by hASC [2]: UC; CXCL6 (GCP-2) secreted by hASC [2]: ↓; CXCL9 (MIG) secreted by hASC [2]: ↓; CXCL10 (IP-10) secreted by hASC [2]: ↓; CXCL12 (SDF-1) secreted by hASC [2]: abs; CXCL13 (BLC) secreted by hASC [2]: ↓; EGF secreted by hASC [2]: ↓; FGF-7 secreted by hASC [2]: Abs; FGF-9 secreted by hASC [2]: UC; FLT3-L secreted by hASC [2]: UC; G-CSF secreted by hASC [2]: ↓; GDNF secreted by hASC [2]: Abs; GM-CSF secreted by hASC [2]: ↓; GRO secreted by hASC [2]: UC; IGF-1 secreted by hASC [2]: Abs; IGFBP-1 secreted by hASC [2]: Abs; IGFBP-3 secreted by hASC [2]: ↓; IGFBP-4 secreted by hASC [2]: ↑; IL-1α secreted by hASC [2]: ↓; IL-1β secreted by hASC [2]: UC; IL-2 secreted by hASC [2]: Abs; IL-3 secreted by hASC [2]: ↓; IL-5 secreted by hASC [2]: ↓; IL-6* secreted by hASC [2]: UC; IL-7 secreted by hASC [2]: ↓; IL-10 secreted by hASC [2]: ↓; IL-12 p70 secreted by hASC [2]: ↓; IL-13 secreted by hASC [2]: ↓; IL-15 secreted by hASC [2]: ↓; INF-γ secreted by hASC [2]: ↓; LIF secreted by hASC [2]: UC; LIGHT secreted by hASC [2]: ↓; M-CSF secreted by hASC [2]: abs; MIF secreted by hASC [2]: UC; NT-3 secreted by hASC [2]: ↓; NT-4 secreted by hASC [2]: Abs; Onc M secreted by hASC [2]: abs; Osteopontin secreted by hASC [2]: ↓; PIGF secreted by hASC [2]: ↓; SCF secreted by hASC [2]: UC; TGF-β1 secreted by hASC [2]: UC; TIMP-1 secreted by hASC [2]: UC; TNF-α secreted by hASC [2]: ↓; TNF-β secreted by hASC [2]: ↓; VEGF secreted by hASC [2]: UC; HGF secretion upregulation (absence of exogenous TGF-β1): 7.65 times; HGF secretion upregulation (presence of exogenous TGF-β1): 4.16 times
